The values below come from the DeepSol protein solubility set.

The nature of the data set: soluble on expression in E. coli; label from the status in PepcDB or PDB records.
Consider “MDNQKRPFTTRFDHYNYNVLNLERSLAFYDRAFGFREVKRKEAADGSFILVYLGDVYGHFLLELTWLRDRKEPYNLGENEVHLCVRTTGDYDAVREYHRAMGCICYENEQMGLYFVNDPDGYWIEVLPENRD”, for which the “soluble on expression in E. coli” value is “not soluble”.
With “MDPALAAQMSEAVAEKMLQYRRDTAGWKICREGNGVSVSWRPSVEFPGNLYRGEGIVYGTLEEVWDCVKPAVGGLRVKWDENVTGFEIIQSITDTLCVSRTSTPSAAMKLISPRDFVDLVLVKRYEDGTISSNATHVEHPLCPPKPGFVRGFNHPCGCFCEPLPGEPTKTNLVTFFHTDLSGYLPQNVVDSFFPRSMTRFYANLQKAVKQFHE”, the “soluble on expression in E. coli” value was “soluble”.
The entry for “MDPFDRPKNDNDPFEDALKRCHKILEKLDCPFVTGKEKDLDESDDMTENEDHDEMANEDDGIPSNEKKVETRKMDCTSGQLLAPKLPEKAESISSASESSEDSESVAILKYTVRTCYAIWKKRQKNSEIALKGLMIVLELCLSQPSARDDAFSALLETLGYNTVTFWKAVVPQIYNSDLSYATQYREALLFSLVLYDVNHSKNRLRELYAAVPGVRQSMLGIRAKQFGERYRHLQMKIARSRASSRMSSKMGSEENLPAMASMMNDVVFDEEPHTQSPLVDMSHDKQRVINVSNAPPVSISRKTSGSWEIKQGSGGLVACVDPVMSADKKNIWLSNLGVNMQEELKEHSTSTNSLGLPLIKQACAGEVFCVLERNEKKEELTPKQQAVESDMSLLSVLNTYNKHSYQLNPVVVNQDDYNTYYGGISNGLLWPALHNLPQYISPCFDDPELLREQWCAYVRVNYLFAINAARNSRAQDFIWIHDYHLMLCGQIMRSLESSLDIGFFIHIPFQPPANFMTKYKTVADPIMRALLRFTKVGFQTSRDRDTFVKLVAKHIKRTKIEYDSRLDRYTIEHDGWTCSLGVFPVSIKIADFVNIAKNPQTIIEAEEIKKQIMGRSADGGQLFFSVERFDYTKGISEKLRAWQRYFEKYPDRIGKDVLFQVAVTNRRSVDSYRQYQDDVLAVADLINQKFKSEDYPEWKPVIFETDGLPRTRLIAHYLAMDIGVVTPSKDGMNLVAKEMLVCNPTASLVLSTGAGTEVQLSNAQFYSEQEGKCYHRVEEISNTEAFADNFFAAATESKETRTKHGEKINQFLCVHDIDEWSDQFLDPKWTHEVISQCEVKQLGQFYGLMSRTAQVRRQIVECVLKGLPIRPHFRYSLENAKNSLESSCKSGTKLSLEADEESGEEKGFEITYDIHDELSEMEKDLAFLAFIQSDEYENAEEFIKTLGSFYEGGPVLFKNEVKQAAEMLQQGIHYNTFFTDRDGTLKSYACSYPTSVQPAYSAVIQAQFARRCATFCAIVTTAPLLHTGILEVATIPEGYYAYGASAGREWYLNPAQQFKDRSFSAIDLNLMNKVFDIIEELLERPEFRIFKWIGSGIQKHCGHITIAKQDVNGTIPSRKVIRLYEQLVKIVNDFDPNGTTLTMRESDLDFKIYVKAKLKGRIFNKGHGIRLVRERLKPNMSKGNCLVCGDNESDIPMLEECLKLAGSKVYTIWVTADTNLQEKVTQLCDRFSCSNIHFVSCPQVLLGAMAYATAHTLVDERNRKLDYYYDSDTPMDQEESSTLGASLGTSFGN” is “not soluble”; for “MDPSAAFRSFPTQERGILLADTYKPLSLYAADVQVRLSGSAAQVILSLEYVNETNKLVRAIAAYPAPSSYQLQCATLQGPAREISARSYVRSRPLRSVEAGSALCAEPLVDTAVSTVATQSVPWDVSPGESVLMKAVYHAPISVTHRTGEIVFTLPASLIPAVQRPPDVQRGYMKFLDARSQLRHLAQQGGSLRVCVDAQLLVPLRGVVTLEKGPEVVPEMGVTGTSVNVHYVGDTHFQMTYHDDLPKTAYMQVPLCVRAPVAETSEPLRLHTVAASLPPTSAPSDHPTAEVAAAMVVSIAPFLANCPINAEIMFVVDVHSAALGARAAESVMSAIRSLNGTASLVNVILCRDAHRGGAVSLLPDESVQSSAVPQESMLAFMKEEGVQTSSSKGPATLSPHLPSLLHDITTGRGITTSIPAGYVRNVIVLSDGGSQPVDADAVAMVCQVTNAGRACRVHAVALAATADHAVLEALAEACGGCFASAAASGSSEAGGSAVDEAVQAAVSAAAVPCLVDIRTKWDVTGGDIAVASSVQAAAAAPSPLRMATDADGGSIACVPHGTQRLLYGLLASANSQLAVRVFGRVGEMRLEYTASSAIQPPPQSDAADTAAAADATDEESGRAPPMLMTAAAAARIAYLTHILHTTSEDEALEVIALSKRYMLPSPYTTLTDGNSGPGGEHKLGGVVHLPSMQAAAHVELAIRARRVELQAAAALRALRPA” it is “soluble”; for “MDPSSIDLGSIPGGSEQQQHEDGAAAAAGSPKEVFRSQQSLGLITQRFMSLRQRNEVLNLNEVAKELNISKRRVYDVINVLEGLGYVEKVEKNNIRWIGDNNNSEEQNALEARVEMLRQQEKLLELMIRDAQAIIELHFEDPIERPYNYVSKEDIRKTAEPNTKSIIVKSELDTSSSFEIQVTDPSTSGSHDMIVRNKNGVKSHALLFTNDPPEYGDEEDEDDVKKLSSQKRFETSEALRVTLAEMLTDPTTISSSPKHIKLEEPEEIDTEDLETFAPPEFSENKWSQKIGGGLAILWAWLALMPRPQNGNFFSAKFFKFFPETVARKTFVLPPSTSASQSNAPYLPETPGRGLFFSPFKSLIDPCILPSFSDDLTSGYINITTPSRATGAGAGASGQEDEEPVSVMDFFSD” it is “not soluble”.
Regarding “MDQFISAFLKSASENNFQQLAKEFLPQYSALISKAGGMLSPETLTGIHKALQEGNLSDVMSQIQKAISAAENAILEVAVIGQSGTGKSSFINALRGLGHEADESADVGTVETTMCKTPYQHPKYPKVIFWDLPGTGTPNFHTDTYLDQVGFANYDFFIIISSSRFSLNDALLAQKIKDAGKKFYFVRTKVDSDLYNEQKAKPIAFKKEKVLQQIRDYCVTNLIKTGVTEPRIFLISNLDLGTFDFPELEETLLKELPGHKRHMFALLLPNISDASIELKKHFLREKIWLEALKSAAVSFIPFMTFFKGFDLPEQEQCLKDYRSYFGLDDQSIKEIAEKLGAPLADIKGELKCLDFWSLVKDNSIIAQATSAAEAFCAVKGGPESSAFQALKVYYRRTQFLNIVVDDAKHLLRKIETVNVA”, the “soluble on expression in E. coli” value is given as “soluble”.
In the case of “MDQNVPISKKLWNIVRFLLYMIRKGVSKNKLIADFNATLKRGKNLMFHQRRRVHAGSTASAALNATSATASSRQEYEFSCSNTPNYSFPFSNMAFMRKKSHNNLFTCGQTPQTLDDDVAAARAVLELLNGVGEKGNVTPADLTVALSPYFPGFGQTPLVRPLRVTDSPFPLTPENGDVANGHVDKAADDFIKKFYKNLNQQKKMIEFS”, the “soluble on expression in E. coli” value was “not soluble”.
Consider “MDRATVVGGAARRLAMIAVIIPAHNEAECMAACLASVFLAASHPELREPVEVIVAVDRCTDATAALAQALGARVIDVPVPGGVGIARAAAASKAIALGADWLAVTDADSRVPADWLVEQRRADADVFCGVVQVEDWLDYSDEVRCRFEQTQATGQGHGRIHGANLGVSAALYQQCGGFPAVTCSEDVALVHALQAINASIAWSPRSVVWTSARRQARAIGGFSDFLKKLEASTCVPALEHHHHHH”, for which the “soluble on expression in E. coli” value is listed as “not soluble”.
Regarding “MDREALQHRVLITVSRSSLFRVVEGILEEGKVSSMASSITEYLLNNRYSRERALEHISVYLESELEKSGIDLDDGVDGISLAILFVYEELLENKSEFFSKIQEKSGHALHPPSSDSEE”, the “soluble on expression in E. coli” value is listed as “not soluble”.
As to “MDRVDVVADLNDPLSCFPDDSVIEIYAHHVLEHVRNFIQLMQEVHRVCMRDSTVTIVVPHYSNQLAYSDPTHVRFFGLYTMCYFVERVFQPFKRKVPDFYIKEKFLLCEVVYDFEPKNTFLGRLFTRRVQLFINANPKRQEFYERYLCRFFPVASVRYVLSPVKLEHHHHHH”, the “soluble on expression in E. coli” value is “soluble”.
As for “MDRVLPFRFAEEEGVFWLLDQRRLPQEEVYVPVRTAREMAQAIRDMVVRGAPAIGVSAAFGMVLAHLAGEDLEEADRRLRASRPTAVNLFHALDRMRPFWGDLAGSLLEARRIWREVEETEAAISRHGAQVLWGQVLTHCNTGPLATGGYGTALGAIVEAYRLGRVRHVWVDETRPYLQGARLTAYELQKAGVPATLITDGMAGWLMARGAVDAVVVGVDRMALNGDFANKVGTYALAVLAHHHGIPFYAALPLSSVDPRLASGEGIPIEERSPEEVVAFRGVRIAPEGFPAYHPAFDVTPHRYLTGIITEKGVLYPPFAEGLRRALGLD”, the “soluble on expression in E. coli” value is “soluble”.
For “MDSEGASSESSSSGDQLEKWTEEQDELKKKLIAYDDFTWKLSSSTELSQGSEILKYVGGVDMSFCKEDSSVACACLVVLELPSLRVVHHDFSLLRLHVPYVPGFLAFREAPVLLQILQKMRDEKHPFYPQVLMVDGNGILHPRGFGLACHLGVLAHLPTIGVGKNLHHVDGLNQSEVKQSLQLQINEHEQTITLVGNSGITWGVGFRPTLSSLKPIYVSVGHRISLDSAVEVVKITCKYRVPEPIRQADIRSRAYLQKHQTESFKELAVRPPDQTEP”, the “soluble on expression in E. coli” value is recorded as “soluble”.
With “MDSELKEEIPVHEEFILCGGAETQVLKCGPWTDLFHDQSVKRPKLLIFIIPGNPGFSAFYVPFAKALYSLTNRRFPVWTISHAGHALAPKDKKILTTSEDSNAQEIKDIYGLNGQIEHKLAFLRTHVPKDMKLVLIGHSIGSYFTLQMLKRVPELPVIRAFLLFPTIERMSESPNGRIATPLLCWFRYVLYVTGYLLLKPCPETIKSLLIRRGLQVMNLENEFSPLNILEPFCLANAAYLGGQEMMEVVKRDDETIKEHLCKLTFYYGTIDPWCPKEYYEDIKKDFPEGDIRLCEKNIPHAFITHFNQEMADMIADSLKDDLSKM”, the “soluble on expression in E. coli” value is “soluble”.
Regarding “MDSGFTLRAPRNDKRRNPMPAILGTGEHRYRVVENFAKLPDGWQLTDVAAVAVDSLDRVYVFNRGAHPMVVLDREGNFLRSWGEGLFSRAHGLHIDADDNLYCTDDGDHTVRKCTSDGKVLLTIGIPAKPAPFMSGEPFHRCTHTALSPKGEIYVSDGYGNARVHKFTPDGKLIKSWGEPGTDPGQFNIVHNIATDSDGWVYVADRENHRVQVFNGEGKYETQWNNLHRPCALCCCGGRSPTFVIGELGPGLDINRNVPNLGPRLSIVDAKGNRIARLGGEEGPGVASGKFLAPHGIALDSKGDIYVGEVGVTNWATSFPDQEMPAVVRATRCLQKLERVRELEHHHHHH”, the “soluble on expression in E. coli” value is on record as “not soluble”.
With “MDSKAKQMILSALCKHFSLDPEPFVGGAGESDIKTLYSNVLKASGKEVSAQNNDVLKWLDFAEGFSSDSKDWFSALEKLNLELATKSVLLGNGLTPSAADVAVFSALHSSVLGLSDSDKEKVPHVIRWVNYIQNKEELSTLFAPIPVKLPEFSFEVPKPAIKVETNSNSKKAAEGVKPVDKPDVQPQLGTKKTEPEEPKKNAAKEKDAKKEKKKPAEPEPAKKEAELSVSLLNIQVGLIRKAWKHPSADSLLVEEIDVGEDKVRQVVSGLAKFCSPEDLTNRLVALITNVKPGKLRDVMSQGLVLCASSEDHSVVEPLLPPAGAKPGERVSFSGIEGKPEDVLNPKKKQLEKITPGLYTDENGVATYKGIQFMTSAGPCTSSIPKATIK”, the “soluble on expression in E. coli” value was “soluble”.
As to “MDSKQQCVKLNDGHFMPVLGFGTYAPPEVPRSKALEVTKLAIEAGFRHIDSAHLYNNEEQVGLAIRSKIADGSVKREDIFYTSKLWSTFHRPELVRPALENSLKKAQLDYVDLYLIHSPMSLKPGEELSPTDENGKVIFDIVDLCTTWEAMEKCKDAGLAKSIGVSNFNRRQLEMILNKPGLKYKPVCNQVECHPYFNRSKLLDFCKSKDIVLVAYSALGSQRDKRWVDPNSPVLLEDPVLCALAKKHKRTPALIALRYQLQRGVVVLAKSYNEQRIRQNVQVFEFQLTAEDMKAIDGLDRNLHYFNSDSFASHPNYPYSDEYLEHHHHHH”, the “soluble on expression in E. coli” value was “soluble”.
